Test results published in patent publication US20260139049A1 (PEDIATRIC IMMUNITY AND HEALTHCARE GUANGZHOU BIOTECHNOLOGY, published 2026).
Positions count from the first letter of the chain named. Each block holds one binder with its values, some of them ahead of it.

Key:
mouse CLDN6 = target: T1, mouse CLDN6 (mouse, UniProt Q9Z262 1-219); assay: FACS on CHO-K1-Mouse CLDN6 cells
T1 construct: whole, on cells; also called CHO-K1-Mouse CLDN6
T1 sequence (looked up): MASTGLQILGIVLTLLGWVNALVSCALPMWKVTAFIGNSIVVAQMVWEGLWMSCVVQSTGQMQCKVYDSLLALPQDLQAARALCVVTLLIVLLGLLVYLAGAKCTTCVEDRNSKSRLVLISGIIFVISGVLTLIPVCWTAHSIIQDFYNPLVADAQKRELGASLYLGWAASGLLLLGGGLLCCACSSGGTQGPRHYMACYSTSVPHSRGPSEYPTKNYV

human CLDN6 [1] = target: T2, human CLDN6 (human, UniProt P56747 1-220); assay: ratio of FACS Geom.Mean on 293T-CLDN6 over 293T-CLDN9, 10 µg/mL
T2 construct: whole, on cells; four-transmembrane protein; also called claudin-6; HEK293T-CLDN6
T2 sequence (looked up): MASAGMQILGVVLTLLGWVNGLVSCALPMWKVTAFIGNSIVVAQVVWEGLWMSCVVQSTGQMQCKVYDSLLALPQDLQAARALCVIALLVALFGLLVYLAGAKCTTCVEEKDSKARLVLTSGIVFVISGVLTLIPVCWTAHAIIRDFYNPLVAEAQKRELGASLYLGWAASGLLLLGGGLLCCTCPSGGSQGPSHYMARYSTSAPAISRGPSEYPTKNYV
Procedure: (§1) 50 μL of an antibody to be tested was added to a 96-well plate, then 1× 10⁵ cells were added to each well, and incubation was conducted at 4° C. for 1 h. Cells were washed three times with PBS. […] Finally, cells were washed three times with PBS, and signals were read using FACS. Binding capacities of the antibody to CLDN9, CLDN3, and CLDN4 were analyzed separately based on detection data.

human CLDN6 [2] = target: T2, human CLDN6; assay: FACS on HepG2 tumour cells; target on the cells taken as CLDN6
Procedure: (§2) The specific binding of a chimeric antibody to a tumor cell was detected by FACS, and an EC50 value was calculated accordingly to evaluate an inhibitory effect of the chimeric antibody on the tumor cell.
as §1, with “1×10⁵” for “1× 10⁵”, “A binding capacity” for “Binding capacities”, “each tumor cell was” for “CLDN9, CLDN3, and CLDN4 were”, “analyzed” for “analyzed separately”

human CLDN3 = target: T3, human CLDN3 (human, UniProt O15551 1-220); assay: FACS on 293T-CLDN3 cells, 10 µg/mL
T3 construct: whole, on cells; also called HEK293T-CLDN3
T3 sequence (looked up): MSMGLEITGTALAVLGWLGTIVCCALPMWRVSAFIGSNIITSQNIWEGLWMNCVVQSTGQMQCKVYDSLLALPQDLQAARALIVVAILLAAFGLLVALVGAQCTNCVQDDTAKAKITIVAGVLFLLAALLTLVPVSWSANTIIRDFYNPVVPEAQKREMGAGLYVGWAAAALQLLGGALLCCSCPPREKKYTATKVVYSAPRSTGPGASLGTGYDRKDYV
Procedure: as §1

human CLDN4 = target: T4, human CLDN4 (human, UniProt O14493 1-209); assay: FACS on 293T-CLDN4 cells, 10 µg/mL
T4 construct: whole, on cells; also called HEK293T-CLDN4
T4 sequence (looked up): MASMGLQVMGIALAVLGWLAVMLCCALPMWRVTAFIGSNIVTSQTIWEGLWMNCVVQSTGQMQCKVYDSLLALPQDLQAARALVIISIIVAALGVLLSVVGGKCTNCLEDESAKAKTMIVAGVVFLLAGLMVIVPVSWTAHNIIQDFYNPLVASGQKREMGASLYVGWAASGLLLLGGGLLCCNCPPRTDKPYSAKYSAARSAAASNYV
Procedure: as §1

human CLDN6 [3] = target: T2, human CLDN6; assay: FACS on 293T-CLDN6 cells, 10 µg/mL
human CLDN9 = target: T5, human CLDN9 (human, UniProt O95484 1-217); assay: FACS on 293T-CLDN9 cells, 10 µg/mL
T5 construct: whole, on cells; also called HEK293T-CLDN9
T5 sequence (looked up): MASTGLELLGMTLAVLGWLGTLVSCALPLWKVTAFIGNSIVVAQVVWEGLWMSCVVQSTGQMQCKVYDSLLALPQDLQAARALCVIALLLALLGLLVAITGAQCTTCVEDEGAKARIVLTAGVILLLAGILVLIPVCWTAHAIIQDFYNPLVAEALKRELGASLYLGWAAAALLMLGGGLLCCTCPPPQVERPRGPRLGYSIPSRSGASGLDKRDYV
Procedure: as §1

human CLDN6 [4] = target: T2, human CLDN6; assay: FACS on HEK293T-CLDN6 cells
Procedure: (§3) To detect a binding capacity of a chimeric or humanized antibody to CLDN6, a CLDN6-expressing cell line HEK293T-CLDN6 and a CLDN6-negative control cell line HEK293T were washed three times with PBS. 1×10⁵ test cells and 50 μL of an antibody solution to be tested were added to a 96-well plate, and incubated at 4° C. for 1 h. The cells were then washed three times with PBS. […] Finally, cells were washed three times with PBS, and signals were read using FACS.
(§4) An EC50 value (a concentration of an antibody that binds to half of binding sites at equilibrium) is calculated through nonlinear regression.

human CLDN6 [5] = target: T2, human CLDN6; assay: FACS on PA-1 tumour cells; target on the cells taken as CLDN6
Procedure: as §2
as §1, with “1×10⁵” for “1× 10⁵”, “A binding capacity” for “Binding capacities”, “each tumor cell was” for “CLDN9, CLDN3, and CLDN4 were”, “analyzed” for “analyzed separately”

[6] = target: T6, monkey CLDN6 (Cyno CLDN6) (monkey (Cyno)); assay: FACS on CHO-K1-Cyno CLDN6 cells
T6 construct: whole, on cells; also called CHO-K1-Cyno CLDN6

human CLDN6 [7] = target: T2, human CLDN6; assay: ratio of FACS signals on CLDN6 cells over CLDN9 cells
Procedure: as §1

human CLDN6 [8] = target: T2, human CLDN6; assay: FACS on PA-1 tumour cells; target on the cells taken as CLDN6; remark: listed apart in the source
Procedure: as §1, with “1×10⁵” for “1× 10⁵”, “A binding capacity” for “Binding capacities”, “each tumor cell was” for “CLDN9, CLDN3, and CLDN4 were”, “analyzed” for “analyzed separately”

human CLDN6 [9] = target: T2, human CLDN6; assay: FACS on HepG2 tumour cells; target on the cells taken as CLDN6; remark: listed apart in the source
Procedure: as §1, with “1×10⁵” for “1× 10⁵”, “A binding capacity” for “Binding capacities”, “each tumor cell was” for “CLDN9, CLDN3, and CLDN4 were”, “analyzed” for “analyzed separately”

human CLDN6 [10] = target: T2, human CLDN6; assay: cell-based or functional assay
human CLDN6 [11] = target: T2, human CLDN6; assay: FACS on HEK293T-CLDN6 cells; remark: listed apart in the source
Procedure: as §3, §4

human CLDN6 [12] = target: T2, human CLDN6; assay: cell-based or functional assay; remark: listed apart in the source
human CLDN6 [13] = target: T2, human CLDN6; assay: FACS on CHO-K1-CLDN6 cells, against PiH1004 (FIG. 40)
human CLDN6 [14] = target: T2, human CLDN6; assay: FACS on HepG2 tumour cells; target on the cells taken as CLDN6; remark: listed apart in the source
Procedure: as §1, with “1×10⁵” for “1× 10⁵”, “A binding capacity” for “Binding capacities”, “each tumor cell was” for “CLDN9, CLDN3, and CLDN4 were”, “analyzed” for “analyzed separately”

- EC50 (mouse CLDN6): 0.117 µg/mL
- CLDN6/CLDN9 ratio (human CLDN6 [1]): 462
- EC50 (human CLDN6 [2]): 0.481 µg/mL
- Geom.Mean (human CLDN3): 139
- Geom.Mean (human CLDN4): 5280
- Geom.Mean (human CLDN6 [3]): 40800
- Geom.Mean (human CLDN9): 88.4
- EC50 (human CLDN6 [4]): 0.274 µg/mL
- EC50 (human CLDN6 [5]): 0.137 µg/mL
- EC50 [6]: 0.351 µg/mL
B1: 15H2D4 (antibody, human IgG1, kappa, V domains shown)
VH: QAYLQQSGAELVRSGASVKMSCKASGYTFTSYNIHWVKQTPGQGLEWIGYIYPGNGGTKYNERFKGKATLTADASSSTAYMQISSLTSEDSAVYFCARWRYYDRPTHYAMDYWGQGTSVTVSS
VL: DIVVTQSPASLAVSLGQRATISCRASKSVSTSGFSYLHWFQQKPGQPPKLLIYLASNLESGVPARFSGSGSGTDFTLNIHPVEEEDVAVYYCQHSREFPFTFGSGTKLEIKR
notes: chimeric: murine variable regions on human IgG1 constant regions

- EC50 (mouse CLDN6): 0.935 µg/mL
- CLDN6/CLDN9 ratio (human CLDN6 [1]): 181
- EC50 (human CLDN6 [2]): 0.294 µg/mL
- CLDN6/CLDN9 signal ratio (human CLDN6 [7]): ~200 fold
- Geom.Mean (human CLDN3): 103
- EC50 (human CLDN6 [8]): 0.34 µg/mL
- Geom.Mean (human CLDN4): 210
- EC50 (human CLDN6 [9]): 0.49 µg/mL
- ADCC dose-response fit: EC50 (human CLDN6 [10]): 0.0483 µg/mL
- ADCC dose-response fit: LogEC50 (human CLDN6 [10]): -1.32
- Geom.Mean (human CLDN6 [3]): 44900
- Geom.Mean (human CLDN9): 248
- EC50 (human CLDN6 [4]): 0.354 µg/mL
- EC50 (human CLDN6 [5]): 0.538 µg/mL
- EC50 (human CLDN6 [11]): 0.235 µg/mL
- EC50 [6]: 0.722 µg/mL
- CDC dose-response fit: EC50 (human CLDN6 [12]): 0.178 µg/mL
- CDC dose-response fit: LogEC50 (human CLDN6 [12]): -0.75
B2: 51C10H4 (antibody, human IgG1, kappa, V domains shown)
VH: EVQLQQSGPELVKPGASVKMSCKASGYTFTDYNMHWVKKSHGKSLEWIGYVNPNNGATSYNQKFKGKATLTVNKSSSTAYMELRSLTSEDSAVYNCARWDGYVYYYGLDYWGQGTSVTVSS
VL: DIQMTQSSSYLSVSLGGRVTITCKASDHINNWLAWYQQKPGNAPRLLISGATSLETGVPSRFSGSGSGKDYTLSITSLQTEDVATYYCQQYWSTPYTFGGGTKLEIKR
notes: chimeric IgG1

- EC50 (mouse CLDN6): 2.09 µg/mL
- CLDN6/CLDN9 ratio (human CLDN6 [1]): 77
- CLDN6/CLDN9 signal ratio (human CLDN6 [7]): ~50 fold
- Geom.Mean (human CLDN3): 151
- Geom.Mean (human CLDN4): 5620
- Geom.Mean (human CLDN6 [3]): 33000
- Geom.Mean (human CLDN9): 428
- EC50 (human CLDN6 [4]): 1.04 µg/mL
- EC50 [6]: 1.94 µg/mL
B3: 47D5D6 (antibody, human IgG1, kappa, V domains shown)
VH: EVQLVESGGDLVKPGGSLKLSCAASGFTFSSYGMSWVRQTPDKRLEWVATISSGGSYTYYPDSVKGRFTISRDNAKNTLYLQMSSLKSEDTAMYYCARPHYVSSYAMDYWGQGTSVTVSS
VL: B2 VL with Y10S, L11F, G17D, D27E, H28D, N30Y, W32R, Y96P
notes: as for B1

- CLDN6/CLDN9 ratio (human CLDN6 [1]): 46
- CLDN6/CLDN9 signal ratio (human CLDN6 [7]): ~50 fold
- Geom.Mean (human CLDN4): 8440
- Geom.Mean (human CLDN6 [3]): 33800
- Geom.Mean (human CLDN9): 731
- EC50 (human CLDN6 [4]): 0.135 µg/mL
- EC50 (human CLDN6 [5]): 0.232 µg/mL
- EC50 [6]: 0.16 µg/mL
B4: 58G3C7 (antibody, human IgG1, kappa, V domains shown)
VH: EVQLVESGGGLVKPGGSLKLSCAASGFTFSNYAMSWVRQTPEKRLEWVATISDGGSYTSYPDNIKGRFTISRDNAKNNLYLQVTHLKSEDTAMYYCARDAILITTAGFAYWGQGTLLTVSA
VL: DIQMTQSSSSFSVSLGDRVTITCKASEDIYNRLAWYQQKPGNAPRLLISATTSLETGVPSRFSGSGSGKDYTLSITSLQTEDVATYYCQQYWSFPRTFGGGTKLEVKR
notes: as for B1

- binding result (human CLDN6 [13]): binds
B5: PiH1004-VH-Mutation11-VL (antibody, human IgG1, kappa, V domains shown)
VH: QVQLVQSGAEVKKPGASVKVSCKASGYTFTDYNMHWVRQAPGQSLEWIGYVNPNNGATSYNQKFKGRATMTVDKSTSTVYMELSSLRSEDTAVYNCARWDGYVYYYGLDFWGQGTLVTVSS
VL: DIQMTQSPSSLSASVGDRVTITCKASDHINNWLAWYQQKPGKVPKLLISGATSLETGVPSRFSGSGSGTDYTLTISSLQPEDVATYYCQQYWSTPYTFGGGTKLEIKR
notes: improved antibody from PiH1004

- EC50 (human CLDN6 [14]): 1.11 µg/mL
B6: PiH2009 (antibody, human IgG1, kappa, V domains shown)
VH: QVQLVQSGAEVKKPGASVKVSCKASGYTFTDYNMHWVRQATGQGLEWIGYINPNNGATNYNQKFKGRATMTRNKSISTAYMELRSLRSEDTAVYYCARWDGYVYYYGMDYWGQGTLVTVSS
VL: B5 VL with K45R, T69K, S93N
notes: humanized from 54B5A7; IgG1; also called 54-VH5 + VL5

- EC50 (human CLDN6 [14]): 0.444 µg/mL
B7: PiH2012 (antibody, human IgG1, kappa, V domains shown)
VH: B6 VH with Q39K, G44S, Y95N
VL: B5 VL with K45R, T69K, S93N
notes: humanized from 54B5A7; IgG1; also called 54-VH8 + VL5
